Experimental data as given in the RNAGym collection of RNA variant scans (doi:10.1073/pnas.2313332121).

B1: TPR t1 (parent)
chain: GACCAAUCUGCCCUCAGAGCUCGAGAACAUCUUCGGAUGCAGAGGAGGCAGGCUUCGGUGGCGCGAUAGCGCCAACGUCCUCAACCUCCAAUGCAUCCCACCACAUGAUGAUGCCUGAAGAGCCUUGGUUUUUUG

Variants of: B1
Experiment: polymerase ribozyme fitness, log enrichment relative to wild type (log ratio); higher = more active; in vitro selection for triplet polymerase activity
How it was run: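 Fitness compares each genotype's enrichment to that of the wild type on a logarithmic scale, averaging replicates with inverse-variance weights. The logarithm is base 2. Enrichment came from Illumina sequencing of input and output libraries after one triplicate round of in vitro selection, which included frozen incubation at −7 °C, of PCR-built, transcribed mutant libraries of each subunit of a heterodimeric triplet polymerase ribozyme. Only genotypes with ≥10 input reads and ≥1 read per output were kept.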

Row | Variant | polymerase ribozyme fitness (log ratio)
1 | GACCAAUCUGCCGUCAGAGCUCGAGAACAUCUUCGGAUGCAGAGGAGGCAGGCUUCGGUGGGGCGUUAGCGCCAACGUCCUCAACCUCCAAUGCAUCCCACCACAUGAUGAUUCCUGAAGAGCCUUGGUUUUUUG [C13G C62G A66U G113U] | -7.31
2 | GACCAAUCUGCCGUCAGAGCUCGAGAACAUCUUCGGAUGCAGAGGAGGCAGGCUUCGGUGGCGCGAUAGCGCCAACGUCCUUAACCUCCAAUGCAUCCCACCACAUGAUGAUGCCUGAAGAGCCUUGGUUAUUUG [C13G C82U U131A] | -2.89
3 | GACCAAUCUGCCGUCAGAGCUCGAGAACAUCUUCGGAUGCAGAGGAGGCAGGCUUCGGUGGCGCGAUAGCGCCAACGUCCUCAACCUCCAAUGCAUCCCAUCACAUGAUGAUGCCUGAAGAGCCUUGGUUUUUUG [C13G C101U] | -2.08
4 | GACCAAUCUGCCGUCAGAGCUCGAGAACAUCUUCGGAUGCAGAGGAGGCAGGCUUCGGUGGCGCGAUAGAGCCAACGUCCUCAACCUCCAAUGCAUCCCACCACAUGAUGAUGCCUGAAGAGCCUUGGUUUUUUG [C13G C70A] | -2.2
5 | GACCAAUCUGCCGUCAGAGCUCGAGAACAUCUUCGGAUGCAGAGGAGGCAGGGUUCGGCGGCGCGAUAGCGCCAACGUCCUCAACCUCCAAUGCAUCCCACCACAUGAUGAUGCCUGAAGAGCCUUGGUUUUGUG [C13G C53G U59C U133G] | -1.68
6 | GACCAAUCUGCCGUCAGACCUCGAGAACAUCUUCGGAUGCAGAGGAGGCAGGCUUCGGUGUCGCGAUAGCGCCAACGUCCUCAACCUUCAAUGCAUCCCACCACAUGAUGAUGCCUGAAGAGCCUUGGUUUUUUG [C13G G19C G61U C88U] | -4.01
7 | GACCAAUCUGCCGUCAAAGCUCGAGAACAUCUUCGGAUGCAGAGGAGGCAGGCUUCGGUGGCGCGAUAGCGCCAACGUCCUCAACCUCCAAUGCAUCCCACCACAUGAUGAUGCUUGAAGAGCCUUGGUUUUUUG [C13G G17A C115U] | -1.42
8 | GACCAAUCUGCCGUCACAGCUCGAGAACAUCUUCGGAUGCAGAGGAGGCAGGCUUCGGUGGCGCGAUAGCGCCAACGUCCUCAACCUCCAAUGCAUCCCACCACAUGAUGAUGCCUGAAGAGCCUUGGUUUUUUG [C13G G17C] | -4.94
9 | GACCAAUCUGCCGUCAGAGCUCGAGAACAUCUUCGUGUGCAGAGGAGGCAGGCUUCGGUGGCGCGAUAGCGCCAACGUCUUCAACCUCCAAUGCAUCCCACCACAUGAUGAUGCCUGAAGAGCCUUGGUUUUUUG [C13G G36U A37G C80U] | -5.7
10 | GACCAAUCUGCCGUCAGAGCUCGAGAACAUCUUCGAAUGGAGAGGAGGCAGGCUUCGGUGGCGCGAUAGCGCCAACGUCCUCAACCUCCAAUGCAUCCCACCACAUGAUGAUGCCUGAAGAGCCUUGGUUUUUUG [C13G G36A C40G] | -4.55
11 | GACCAAUCUGCCGUCAGAGCUCGAGAACAUCUUCGGAUGCAGAGGAGGCAGGCUUCGGUGGUGCGAUAGCGCCAACGUCCACAACCUCCAAUGUAUCCCAUCACAUGAUGAUGCCUGAAGAGCCUUGGUUUUUUG [C13G C62U U81A C94U C101U] | -3.12
12 | GACCAAUCUGCCGUCAGAGCUCGAGAACAUCUUCGCAUGUAGAGGAGGCAGGCUUCGGUGGCGCGAUAGCGCCAACGUCCUCAACCUCCAAUGCAUCCCACCACAUGAUGAUGCCUGAAGAGCCUUGGUUUUUUG [C13G G36C C40U] | -2.55
13 | GACCAAUCUGCCGUCAGAGCUCGAGAACAUCUUCGGAUGCAGAGGAGGCAGGCUUCGGUGGUGCGAUAGCGCCAACGUCCUCAACCUCCAAUGCAUCCCACCACAUGAUGAUGCCUGAAGAGCCUUGGUUUUUUG [C13G C62U] | -1.43
14 | GACCAAUCUGCCGUCAGAGCUCGAGAACAUCUUCCGAUGCAGAGGAGGCAGGCUUCGGUGGCGUGAUAGCGCCAACGUCCUCAACCUCCGAUACAUACCACCACAUGAUGAUGCCUGAAGAGCAUUGGUUUUUUG [C13G G35C C64U A90G G93A C97A C124A] | -5.83
15 | GACCAAUCUGCCGUCAGAGCUCGAGAACAUCUUCGGAUGCAGAGGAGGCAGGCUUGGGUGGCGCGAUACCGCCAACGUCCUCAACCUCAAAUGCAUCCCACCACAUGAUGAUGCCUUAAGAGCCUUGGUUUUUUG [C13G C56G G69C C89A G117U] | -6.43
16 | GACCAAUCUGCCGUCAGAGCUCGAGAACAUCUUCUGAUGCAGAGGAGGCAGGCUUCGGUGUCGCGAUAGCGCCAACGUCCUCAACCUCCAAUGCAUCCCACUACAUGAUGAUGCCUGAAGAGCCUUGGUUUUUUG [C13G G35U G61U C102U] | -6.42
17 | GACCAAUCUGCCGUCAGAGCUCGAGAACAUCUUCGGAUGCAGAGGAGGCAGGCUUAGGUGGCACGAUAGCGCCAACGUCCUCAACCUCCAAUGCAUCCCACCACAUGAUGAUGCCUGAAGAGCCUUGGUUUUUUG [C13G C56A G63A] | -3.78
18 | GACCAAUCUGCCGUCAGAGCUCGAGAACAUCUUCGGAUGCAGAGGAGGCAGGCUUCGGUGGCGCGAUAGCGCCAACGUCAUGAACCUCCAAUGCAUCCCACCACAUGAUGAUGCCUGAAGAGCCUUGGUCUUUUG [C13G C80A C82G U130C] | -4.35
19 | GACCAAUCUGCCGUCAGAGCUCGAGAACAUCUUCGGAUGCAGAGGAGGCAGGCUUCGGUGGAGCGAUAGCGCCAACGUCCUCAACCUCCAAUGCAUCCCACCACAUGAUGAUGCCUGAAGAGCAUUGGUUUUUUG [C13G C62A C124A] | 0.6
20 | GACCAAUCUGCCGUCAGAGCUCGAGAACAUCUUCGGAUGCAGAGGAGGCAGGCUUCGGUGGCGCGAUAGCGACAACGGCCUCAACCUCCAAUGCAUCCCACCACAUGAUGAUGCCUGAAGAGCCUUGGUUUUUUG [C13G C72A U78G] | -2.9
21 | GACCAAUCUGCCGUCAGAGCUCGAGAACAUCUUCGGAUGUAGAGGAGGAAGGCUUCGGUGGCGAGAUAGCGCCAACGUCCUCAACCUCCAAUGCAUCCCCCCACAUGAUGAUGCUUGAAGAGCCUUGGUUUUUUG [C13G C40U C49A C64A A100C C115U] | -6.9
